The data set is described as follows: protein stability index of a GFP-peptide fusion (GPS, HEK-293T) (PSI 1-6); higher = more stable. To be noted: c terminus: native.
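Note: lentivirally expressed fusion library, cells FACS-sorted into six equal-sized GFP/DsRed ratio bins, PSI computed from sequencing read fractions per bin weighted by bin number.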

B1: TRPA1 addW (peptide)
chain: EQRNSRWNTVLRAVKAKTHHLEPW
Take B1: the protein stability index (parent: NP_015628.1) amounted to 3.58.

B2: SNF8 addW (peptide)
chain: LPALFTDLYSQEITAEEAREALPW
Regarding B2, the protein stability index (parent: NP_009172.2) is 3.4.

B3: POLD2 addW (peptide)
chain: CQPISFSGFGAEDDDLGGLGLGPW
For B3, the protein stability index (parent: NP_006221.1) was determined as 2.02.

B4: PSMB5 addW (peptide)
chain: DGWIRVSSDNVADLHEKYSGSTPW
B4: the protein stability index (parent: NP_002788.1) is 3.46.

B5: BEX2 addW (peptide)
chain: HSLRAVSTDPPHHDHHDEFCLMPW
Consider B5, for which the protein stability index (parent: NP_116010.1) amounted to 3.48.
